From PMC11851098 (Nucleic Acids Research, 2025) come the findings set out here.

Data set [1] concerns the target T1, Suv3 helicase (UniProt Q8IYB8 23-786, Alexa 647 label (site not stated) in the MST assay).
T1 sequence (looked up): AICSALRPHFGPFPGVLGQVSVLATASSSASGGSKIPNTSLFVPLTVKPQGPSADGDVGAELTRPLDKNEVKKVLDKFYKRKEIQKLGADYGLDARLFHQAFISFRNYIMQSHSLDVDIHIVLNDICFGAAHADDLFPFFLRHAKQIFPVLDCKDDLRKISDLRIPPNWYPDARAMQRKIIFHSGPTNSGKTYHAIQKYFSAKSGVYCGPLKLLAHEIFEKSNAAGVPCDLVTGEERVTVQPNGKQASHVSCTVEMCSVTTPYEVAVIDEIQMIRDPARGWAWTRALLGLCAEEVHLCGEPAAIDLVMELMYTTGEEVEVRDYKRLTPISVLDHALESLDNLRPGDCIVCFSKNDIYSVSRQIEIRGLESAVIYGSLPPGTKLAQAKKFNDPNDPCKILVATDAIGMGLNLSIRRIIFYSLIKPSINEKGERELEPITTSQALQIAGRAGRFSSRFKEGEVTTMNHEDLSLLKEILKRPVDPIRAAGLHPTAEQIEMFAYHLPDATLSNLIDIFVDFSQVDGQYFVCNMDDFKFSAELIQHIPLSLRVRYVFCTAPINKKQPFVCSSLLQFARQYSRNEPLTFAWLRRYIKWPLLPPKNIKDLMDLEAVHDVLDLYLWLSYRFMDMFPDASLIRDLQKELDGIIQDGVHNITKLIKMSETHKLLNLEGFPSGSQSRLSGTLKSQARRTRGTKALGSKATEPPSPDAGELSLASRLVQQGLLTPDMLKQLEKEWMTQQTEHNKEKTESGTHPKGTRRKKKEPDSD
Put plainly: MST.

Data set [2] deals with the molecule itself. Put plainly: SAXS.

A word on the Kd: it is a measure of binding affinity in units of concentration. One may read the stoichiometry N as the number of molecules, sites or subunits per partner or assembly.

Numbering of substitutions follows the chain as printed. In names and notes the source's numbering stands.

B1: hPNPase G499R mutant, residues 46-783 (enzyme, human, UniProt Q8TCS8 46-783, looked up)
chain: AVAVDLGNRKLEISSGKLARFADGSAVVQSGDTAVMVTAVSKTKPSPSQFMPLVVDYRQKAAAAGRIPTNYLRREIGTSDKEILTSRIIDRSIRPLFPAGYFYDTQVLCNLLAVDGVNEPDVLAINGASVALSLSDIPWNGPVGAVRIGIIDGEYVVNPTRKEMSSSTLNLVVAGAPKSQIVMLEASAENILQQDFCHAIKVGVKYTQQIIQGIQQLVKETGVTKRTPQKLFTPSPEIVKYTHKLAMERLYAVFTDYEHDKVSRDEAVNKIRLDTEEQLKEKFPEADPYEIIESFNVVAKEVFRSIVLNEYKRCDGRDLTSLRNVSCEVDMFKTLHGSALFQRGQTQVLCTVTFDSLESGIKSDQVITAINGIKDKNFMLHYEFPPYATNEIGKVTGLNRRELGHGALAEKALYPVIPRDFPFTIRVTSEVLESNGSSSMASACGGSLALMDSRVPISSAVAGVAIGLVTKTDPEKGEIEDYRLLTDILGIEDYNGDMDFKIAGTNKGITALQADIKLPGIPIKIVMEAIQQASVAKKEILQIMNKTISKPRASRKENGPVVETVQVPLSKRAKFVGPGGYNLKKLQAETGVTISQVDEETFSVFAPTPSAMHEARDFITEICKDDQEQQLEFGAVYTATITEIRDTGVMVKLYPNMTAVLLHNTQLDQRKIKHPTALGLEVGQEIQVKYFGRDPADGRMRLSRKVLQSPATTVVRTLNDRSSIVMGEPISQSSSNSQ
Molecule B1 yielded a Kd in data set [1] of 474 ± 70 nM. Also, in data set [2], the “stoichiometry N” value came to 3.

B2: hPNPase P467S mutant, residues 46-783 (enzyme, human, UniProt Q8TCS8 46-783, looked up)
chain: B1 chain with P422S, R454G
As to B2, the Kd in data set [1] worked out at 386 ± 64 nM. Also, the “stoichiometry N” value in data set [2] came out at 3.
